From patent publication US20140212888A1 (published 2014)

Key:
Test in all cases: multimer staining
[1] = biological target: T1, WT1 (wildtype WT1 peptide) peptide on HLA-A*24:02 (human)
T1 peptide: CMTWNQMNL

[2] = biological target: T2, HIV (human immunodeficiency virus) envelope peptide on HLA-A*24:02 (human)
T2 peptide: RYLRDQQLL

[3] = biological target: T3, WT1 (mutant WT1 peptide: second methionine of the wildtype peptide substituted with tyrosine) peptide on … (human)
T3 peptide: CYTWNQMNL

B1: WT1 TCR A12-3/B5-1 (TCR, V domains shown)
Valpha: QKEVEQDPGPLSVPEGAIVSLNCTYSNSAFQYFMWYRQYSRKGPELLMYTYSSGNKEDGRFTAQVDKSSKYISLFIRDSQPSDSATYLCATSNAGGTSYGKLTFGQGTILTVHP
Vbeta: KAGVTQTPRYLIKTRGQQVTLSCSPISGHRSVSWYQQTPGQGLQFLFEYFSETQRNKGNFPGRFSGRQFSNSRSEMNVSTLELGDSALYLCASSYGERERKGETQYFGPGTRLLVL
B1: recognises [1]; no recognition [2]; recognises [3].
